Results from PMC3102710.

Target: SARS-CoV nsp10 (SARS-CoV Frankfurt-1)
Experiment: pull-down

## SARS-CoV nsp16 (enzyme)
  % associated: 100%
